We go through one protein from patent publication US20020090696.

Data set [1] concerns the target GST-2.5 fusion protein [GST: P08515].

B1: Rat SAPKβ (protein)
chain: MSLHFLYYCSEPTLDVKIAFCQGFDKHVDVSSVVKHYNMSKSKVDNQFYSVEVGDSTFTVLKRYQNLKPIGSGAQGIVCAAYDAVLDRNVAIKKLSRPFQNQTHAKRAYRELVLMKCVNHKNIISLLNVFTPQKTLEEFQDVYLVMELMDANLCQVIQMELDHERMSYLLYQMLCGIKHLHSAGIIHRDLKPSNIVVKSDCTLKILDFGLARTAGTSFMMTPYVVTRYYRAPEVILGMGYKENVDIWSVGCIMGEMVRHKILFPGRDYIDQWNKVIEQLGTPCPEFMKKLQPTVRNYVENRPKYAGLTFPKLFPDSLFPADSEHNKLKASQARDLLSKMLVIDPAKRISVDDALQHPYINVWYDPAEVEAPPPQIYDKQLDEREHTIEEWKELIYKEVMNSEEKTKNGVVKGQPSPSGAAVNSSESLPPSSSVNDISSMSTDQTLASDTDSSLEASAGPLGCCR
With B1, the “phosphorylation of GST-c-Jun in a kinase reaction with c-Jun and rSAPKβ” value with GST [GST: P08515] is “GST alone shows no effect”. Besides, in data set [1], the “in vitro kinase assay, phosphorylation of protein 2.5” value is given as “Rat SAPKβ ... phosphorylates protein 2.5”; the “in vitro phosphorylation assay” value is recorded as “hJIP1/IB1 is a substrate for JNK3 in the same in vitro phosphorylation assay”; the “in vitro phosphorylation of a GST c-Jun fusion protein” value is recorded as “this protein greatly reduces phosphorylation of a GST c-Jun fusion protein in a concentration dependent manner”; the “phosphorylation of GST-c-Jun in a kinase reaction with c-Jun and rSAPKβ” value is listed as “protein 2.5 shows a dose-dependent inhibition of phosphorylation of GST-c-Jun”.
